Experimental data as given in PMC12207459, “A self-assembling surface layer flattens the cytokinetic furrow to aid cell division in an archaeon” (Proceedings of the National Academy of Sciences of the …, 2025).

Target: the molecule itself
Experiment: cryo-EM imaging of cells; unlabeled purified S-layer proteins added to live Vps4 E209Q ΔslaA cells, 75 °C, 1 h; lattice seen on the cell surface by cryo-EM

B1: purified SlaA from wild-type S. acidocaldarius, unlabeled (natural protein, Sulfolobus acidocaldarius, UniProt Q4J6E5 25-1424, looked up)
chain: ITTTALTPPVSAGGIQAYLLTGSGAPASGLVLFVVNVSNIQVSSSNVTNVISTVVSNIQINAKTENAQTGATTGSVTVRFPTSGYNAYYDSVDKVVFVVVSFLYPYTTTSVNIPLSYLSKYLPGLLTAQPYDETGAQVTSVSSTPFGSLIDTSTGQQILGTNPVLTSYNSYTTQANTNMQEGVVSGTLTSFTLGGQSFSGSTVPVILYAPFIFSNSPYQAGLYNPMQVNGNLGSLSSEAYYHPVIWGRALINTTLIDTYASGSVPFTFQLNYSVPGPLTINMAQLAWIASINNLPTSFTYLSYKFSNGYESFLGIISNSTQLTAGALTINPSGNFTINGKKFYVYLLVVGSTNSTTPVEYVTKLVVEYPSSTNFLPQGVTVTTSSNKYTLPVYEIGGPAGTTITLTGNWYSTPYTVQITVGSTPTLTNYVSQILLKAVAYEGINVSTTQSPYYSTAILSTPPSEISITGSSTITAQGKLTATSASATVNLLTNATLTYENIPLTQYSFNGIIVTPGYAAINGTTAMAYVIGALYNKTSDYVLSFAGSQEPMQVMNNNLTEVTTLAPFGLTLLAPSVPATETGTSPLQLEFFTVPSTSYIALVDFGLWGNLTSVTVSAYDTVNNKLSVNLGYFYGIVIPPSISTAPYNYQNFICPNNYVTVTIYDPDAVLDPYPSGSFTTSSLPLKYGNMNITGAVIFPGSSVYNPSGVFGYSNFNKGAAVTTFTYTAQSGPFSPVALTGNTNYLSQYADNNPTDNYYFIQTVNGMPVLMGGLSIVASPVSASLPSSTSSPGFMYLLPSAAQVPSPLPGMATPNYNLNIYITYKIDGATVGNNMINGLYVASQNTLIYVVPNGSFVGSNIKLTYTTTDYAVLHYFYSTGQYKVFKTVSVPNVTANLYFPSSTTPLYQLSVPLYLSEPYYGSPLPTYIGLGTNGTSLWNSPNYVLFGVSAVQQYLGFIKSISVTLSNGTTVVIPLTTSNMQTLFPQLVGQELQACNGTFQFGISITGLEKLLNLNVQQLNNSILSVTYHDYVTGETLTATTKLVALSTLSLVAKGAGVVEFLLTAYPYTGNITFAPPWFIAENVVKQPFMTYSDLQFAKTNPSAILSLSTVNITVVGLGGKASVYYNSTSGQTVITNIYGQTVATLSGNVLPTLTELAAGNGTFTGSLQFTIVPNNTVVQIPSSLTKTSFAVYTNGSLAIVLNGKAYSLGPAGLFLLPFVTYTGSAIGANATAIITVSDGVGTSTTQVPITAENFTPIRLAPFQVPAQVPLPNAPKLKYEYNGSIVITPQQQVLKIYVTSILPYPQEFQIQAFVYEASQFNVHTGSPTAAPVYFSYSAVRAYPALGIGTSVPNLLVYVQLQGISNLPAGKYVIVLSAVPFAGGPVLSEYPAQLIFTNVTLTQ
modifications: highly glycosylated
notes: S-layer protein SlaA of Sulfolobus acidocaldarius, locus saci2355, extracted from the S-layer of wild-type cells; Same preparation as m1 without the dye; it may also contain SlaB; also called unlabeled exogenous S-layer proteins; soluble S-layer proteins
B1: binds.
